Test results from the Immune Epitope Database (IEDB).

Assays:
HLA-A*24:02 = experiment: IEDB peptide-MHC binding, purified MHC/competitive/radioactivity; filed as Kd, often an IC50 or EC50 that approximates it; ≥ and ≤ were set here for values at or beyond the usual limits of such assays
HLA-A*26:01 = experiment: as above
HLA-A*29:02 = experiment: as above
HLA-A*01:01 = experiment: as above
HLA-A*30:02 = experiment: as above
HLA-A*23:01 = experiment: as above
HLA-B*44:02 = experiment: as above
HLA-B*40:01 = experiment: as above; settings: source organism: Dengue virus 1 Brazil/97-11/1997
HLA-A*02:01 [1] = experiment: IEDB peptide-MHC binding, purified MHC/competitive/fluorescence; filed as Kd, often an IC50 or EC50 that approximates it; ≥ and ≤ were set here for values at or beyond the usual limits of such assays
HLA-B*51:01 = experiment: IEDB peptide-MHC binding, purified MHC/competitive/radioactivity; filed as Kd, often an IC50 or EC50 that approximates it; ≥ and ≤ were set here for values at or beyond the usual limits of such assays
HLA-B*07:02 = experiment: as above; settings: source organism: Dengue virus 2 Jamaica/1409/1983
HLA-B*53:01 = experiment: as above; settings: source organism: Dengue virus 2 Jamaica/1409/1983
HLA-B*44:03 = experiment: as above
HLA-A*02:01 [2] = experiment: as above
[3] = source organism: SARS coronavirus Tor2
[4] = source organism: Dengue virus 2 Jamaica/1409/1983
[5] = source organism: Dengue virus 1 Brazil/97-11/1997
[6] = source organism: Lymphocytic choriomeningitis virus (strain Armstrong)
[7] = source organism: Mammarenavirus machupoense
[8] = source organism: Mammarenavirus whitewaterense
[9] = source organism: Dengue virus 3 Singapore/8120/1995

DYDCVSFCY showed a Kd (HLA-A*24:02; [3]) of no less than 20200 nM, a Kd (HLA-A*26:01; [3]) of 17600 nM and a Kd (HLA-A*29:02; [3]) of 145 nM. The Kd (HLA-A*01:01; [3]) was no less than 58000 nM, the Kd (HLA-A*30:02; [3]) was 1400 nM and the Kd (HLA-A*23:01; [3]) was no less than 20900 nM.
VSSPDAVTTY gave a Kd (HLA-A*24:02; [3]) of no less than 70300 nM, a Kd (HLA-A*26:01; [3]) of 3700 nM and a Kd (HLA-A*29:02; [3]) of 1840 nM. The Kd (HLA-A*01:01; [3]) was 223 nM, the Kd (HLA-A*30:02; [3]) was 11.3 nM and the Kd (HLA-A*23:01; [3]) was no less than 70000 nM.
Sequence KEIAETQHG has a Kd (HLA-B*44:02; [4]) of 62.1 nM.
Work on SEMGANFRAD yielded a Kd (HLA-B*44:02; [5]) of 137 nM.
AYSFLPGVY showed a Kd (HLA-A*24:02; [3]) of 30.8 nM, a Kd (HLA-A*26:01; [3]) of 6390 nM and a Kd (HLA-A*29:02; [3]) of 4.52 nM. For the same sequence, the Kd (HLA-A*01:01; [3]) was 6520 nM, the Kd (HLA-A*30:02; [3]) was 0.267 nM and the Kd (HLA-A*23:01; [3]) was 7400 nM.
RELKCGSGI showed a Kd (HLA-B*40:01) of 13.8 nM and a Kd (HLA-B*44:02; [5]) of 119 nM.
For RTCSNWVPL, the Kd (HLA-A*02:01 [1]; source organism: Vaccinia virus Ankara) was 329 nM.
VPSIKAGNDI showed a Kd (HLA-B*51:01; [4]) of 8470 nM, a Kd (HLA-B*07:02) of 2130 nM and a Kd (HLA-B*53:01) of no less than 59800 nM.
With LIFRGPNVV the Kd (HLA-A*24:02; [6]) was no less than 77500 nM, the Kd (HLA-A*26:01; [6]) was no less than 77900 nM and the Kd (HLA-A*29:02; [6]) was no less than 54700 nM. It also gave a Kd (HLA-A*01:01; [6]) of 10800 nM, a Kd (HLA-A*30:02; [6]) of 9970 nM and a Kd (HLA-A*23:01; [6]) of 15400 nM.
For AFRDVLVVL, the Kd (HLA-A*24:02; [3]) was 6820 nM, the Kd (HLA-A*26:01; [3]) was 13000 nM and the Kd (HLA-A*29:02; [3]) was 14000 nM. The Kd (HLA-A*01:01; [3]) was 15900 nM, the Kd (HLA-A*30:02; [3]) was 9830 nM and the Kd (HLA-A*23:01; [3]) was 1970 nM.
QCGDPSSFDY was tested, and the Kd (HLA-A*24:02; [7]) was no less than 70300 nM, the Kd (HLA-A*26:01; [7]) was no less than 69700 nM and the Kd (HLA-A*29:02; [7]) was 5830 nM. The Kd (HLA-A*01:01; [7]) was 1400 nM, the Kd (HLA-A*30:02; [7]) was 3310 nM and the Kd (HLA-A*23:01; [7]) was no less than 28800 nM.
With ALFYKDGKL the Kd (HLA-A*02:01 [1]; source organism: Variola major virus) was 533 nM.
NVSLVKPTVY gave a Kd (HLA-A*24:02; [3]) of no less than 70300 nM, a Kd (HLA-A*26:01; [3]) of 16300 nM and a Kd (HLA-A*29:02; [3]) of 2410 nM. For the same sequence, the Kd (HLA-A*01:01; [3]) was 12400 nM, the Kd (HLA-A*30:02; [3]) was 1170 nM and the Kd (HLA-A*23:01; [3]) was no less than 70000 nM.
VWKRFEHLCV gave a Kd (HLA-A*24:02; [8]) of no less than 47600 nM, a Kd (HLA-A*26:01; [8]) of no less than 69700 nM and a Kd (HLA-A*29:02; [8]) of no less than 71400 nM. The Kd (HLA-A*01:01; [8]) was no less than 70400 nM, the Kd (HLA-A*30:02; [8]) was 10500 nM and the Kd (HLA-A*23:01; [8]) was 7990 nM.
In the case of QEHETSWHY, the Kd (HLA-B*44:03; [4]) is reported as 29.6 nM and the Kd (HLA-B*44:02; [4]) is reported as 46.7 nM.
DLKPDNILL was tested, and the Kd (HLA-A*02:01 [1]; source organism: Plasmodium yoelii yoelii) was 154 nM.
SGALDTTSY was tested, and the Kd (HLA-A*24:02; [3]) was no less than 77600 nM, the Kd (HLA-A*26:01; [3]) was no less than 55500 nM and the Kd (HLA-A*29:02; [3]) was 168 nM. The Kd (HLA-A*01:01; [3]) was no less than 80600 nM, the Kd (HLA-A*30:02; [3]) was 20.9 nM and the Kd (HLA-A*23:01; [3]) was no less than 77800 nM.
Sequence NENDQYIYM has a Kd (HLA-B*44:03; [4]) of 208 nM and a Kd (HLA-B*44:02; [4]) of 25.5 nM.
With NEAKITDIM the Kd (HLA-B*44:03; [5]) was 4130 nM and the Kd (HLA-B*40:01) was 83.1 nM.
LYLYALIYF was tested, and the Kd (HLA-A*24:02; [3]) was 1.01 nM, the Kd (HLA-A*26:01; [3]) was 12600 nM and the Kd (HLA-A*29:02; [3]) was 0.143 nM. It also gave a Kd (HLA-A*01:01; [3]) of 5160 nM, a Kd (HLA-A*30:02; [3]) of no less than 81100 nM and a Kd (HLA-A*23:01; [3]) of 0.0785 nM.
ASLGPLRETY showed a Kd (HLA-A*24:02; [3]) of no less than 70300 nM, a Kd (HLA-A*26:01; [3]) of no less than 81500 nM and a Kd (HLA-A*29:02; [3]) of 557 nM. For the same sequence, the Kd (HLA-A*01:01; [3]) was no less than 114000 nM, the Kd (HLA-A*30:02; [3]) was 154 nM and the Kd (HLA-A*23:01; [3]) was no less than 70000 nM.
For SEMAEALKGM, the Kd (HLA-B*44:03; [5]) was 22.4 nM, the Kd (HLA-B*40:01) was 613 nM and the Kd (HLA-B*44:02; [5]) was 68.3 nM.
Sequence SMRRNYFTAEV has a Kd (HLA-A*02:01 [1]; source organism: Influenza A virus (A/quail/Hong Kong/SF550/00(H6N1))) of 1330 nM.
With AACRAAGL the Kd (HLA-A*02:01 [2]; source organism: Hepatitis C virus (isolate 1)) was no less than 50000 nM.
In the case of LPETLETLLL, the Kd (HLA-B*51:01; [4]) is reported as 11000 nM and the Kd (HLA-B*53:01) is reported as 37.6 nM.
WFSQRGGSY was tested, and the Kd (HLA-A*24:02; [3]) was no less than 62500 nM, the Kd (HLA-A*26:01; [3]) was 2160 nM and the Kd (HLA-A*29:02; [3]) was 0.847 nM. The Kd (HLA-A*01:01; [3]) was 182 nM, the Kd (HLA-A*30:02; [3]) was 11 nM and the Kd (HLA-A*23:01; [3]) was no less than 77800 nM.
MLMPRQKI was tested, and the Kd (HLA-A*02:01 [1]; source organism: Influenza A virus (A/turkey/Wisconsin/1968(H5N9))) was 1530 nM.
In the case of VTTWEDVPY, the Kd (HLA-A*01:01; [9]) is reported as 520 nM and the Kd (HLA-A*30:02; [9]) is reported as 248 nM.
In the case of LLNATDIAVA, the Kd (HLA-A*02:01 [2]; source organism: Human immunodeficiency virus 1) is reported as 427 nM.
In the case of VPLLALGCY, the Kd (HLA-B*51:01; [5]) is reported as 14900 nM.
LPLPWAAGA was tested, and the Kd (HLA-B*51:01; source organism: Dengue virus 4 Philippines/H241/1956) was 1420 nM.
With ELNAELSDKL the Kd (HLA-A*02:01 [1]; source organism: Vaccinia virus WR) was no less than 20000 nM.
